Source: patent publication US7205273B2, “Fusogenic liposomes” (The University of British Columbia, priority 1996, dated 2007)

Assays:
[1] = 31P-NMR phase behaviour of equimolar DOPE:cholesterol mixtures with bilayer stabilizing component; assay type: physicochemical; details: DOPE:cholesterol:BSC 1:1:0.25, 0 to 60° C.
Protocol: Lipid components were mixed in 1–2 ml of benzene:methanol (95:5, v/v) and then lyophilized for a minimum of 5 hours at a pressure of <60 millitorr using a Virtis lyophilizer equipped with a liquid N2 trap. Multilamellar vesicles (MLVs) were prepared by hydrating the dry lipid mixtures in 150 mM NaCl, buffered with 10 mM Hepes-NaOH, pH 7.4 (Hepes-buffered saline, HBS). Mixtures were vortexed to assist hydration. To produce large unilamellar vesicles (LUVs), MLVs were first frozen in liquid nitrogen and then thawed at 30° C. five times. LUVs were produced by extrusion of the frozen and thawed MLVs ten times through 2 stacked polycarbonate filters of 100 nm pore size at 30° C. and pressures of 200–500 psi (Hope, et al., Biochim. Biophys. Acta, 812:55–65 (1985)).
^31P-NMR spectra were obtained using a temperature controlled Bruker MSL200 spectrometer operating at 81 MHz. Free induction decays were accumulated for 2000 transients using a 4 μs, 90° pulse, 1 sec. interpulse delay, 20 KHz sweep width and Waltz decoupling. A 50 Hz line broadening was applied to the data prior to Fourier transformation. Samples were allowed to equilibrate at the indicated temperature for 30 minutes prior to data accumulation. Lipid concentrations of 30–70 mM were used.

[2] = Lipid mixing (FRET) assay, NaCl-induced fusion of DOPE:DODAC liposomes; details: DOPE:DODAC:PEG-lipid 83:15:2, 300 mM NaCl, POPC sink, 37° C.
Protocol: FIG. 16 illustrates the inhibition of fusion of DOPE:DODAC liposomes by PEG-PE. Liposomes were prepared from either DOPE:DODAC (85:15) or DOPE:DODAC:DMPE-PEG2000 (83:15:2). Fusion was assayed as described under FIG. 1 using 300 mM NaCl.
FIG. 17 illustrates the recovery fusogenic activity after PEG removal. Liposomes were prepared from either DOPE:DODAC:ceramide(C8:0)-PEG2000, 83:15:2 or […], 38:45:15:2. Fusion was assayed as described under FIG. 2 except that at the indicated times a 30 fold excess (over donors) of liposomes composed of POPC or POPC:cholesterol (55:45) was added.
FIG. 18 illustrates the effect of the lipid anchor on the rate of PEG-lipid removal. […] At zero time a 13-fold excess (over labelled vesicles) of POPC liposomes was added and the fluorescence intensity was measured at the indicated times. At the end of the assay Triton X-100 (0.5% final) was added to eliminate energy transfer and the % fusion was calculated from the change in efficiency of energy transfer. Maximum fusion was calculated from a standard curve of energy transfer efficiency against the molar fraction of Rh-PE in the membrane assuming complete mixing of labelled and unlabelled liposomes.
Lipid mixing was measured by a modification of the fluorescence resonance energy transfer (FRET) assay of Struck, et al. (Biochemistry, 20:4093–4099 (1981)). […]

**Q.** Which “phase preference by 31P-NMR” value [1] does the source give for “1-O-methyl-(poly(ethoxy)-O-succinyl-O-(egg)ceramide [egg ceramide-PEG2000]” here?
**A.** The value was “exclusively bilayer up to 60 °C”.

**Q.** And the “time for 50% maximal fusion” value [2]?
**A.** Its value is “over 20 hr”.
